Measurements reported in patent US20170022281A1 (AbbVie / Abbott, published 2017).

How the values were obtained:
[1] = target: T1, cyno PRLR (Biacore antigen) (cyno, UniProt A0A2K5WXK1 25-234); test: SPR Biacore
T1 construct: also called cyPRLR
T1 sequence: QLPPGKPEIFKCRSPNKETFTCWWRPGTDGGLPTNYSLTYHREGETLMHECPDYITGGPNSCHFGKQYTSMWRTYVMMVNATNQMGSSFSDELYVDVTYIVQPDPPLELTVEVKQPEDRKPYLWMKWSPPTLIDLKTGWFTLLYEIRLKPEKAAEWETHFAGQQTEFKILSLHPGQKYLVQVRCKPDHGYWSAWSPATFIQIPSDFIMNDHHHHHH
Procedure, shortened: (§1)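 Association rate, dissociation rate and dissociation constant were measured by surface plasmon resonance on a Biacore instrument. PRLR antigen was tested at 600 nM, 66.67 nM and 7.41 nM, a 3-point, 9-fold dilution series. Constants came from a 1:1 binding model fit (local Rmax, mass-transport term included) in Biacore T200 Evaluation Software.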

[2] = target: T2, murine PRLR (Biacore antigen) (murine, UniProt Q08501 20-229, limits assumed); test: SPR Biacore
T2 construct: also called muPRLR
T2 sequence (looked up): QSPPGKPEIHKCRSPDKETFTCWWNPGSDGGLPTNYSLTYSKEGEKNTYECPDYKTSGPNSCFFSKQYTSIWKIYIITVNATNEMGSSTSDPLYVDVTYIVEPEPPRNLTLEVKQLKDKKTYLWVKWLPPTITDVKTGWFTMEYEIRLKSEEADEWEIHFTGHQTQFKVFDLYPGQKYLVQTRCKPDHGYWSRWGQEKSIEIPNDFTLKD
Procedure, shortened: as §1

[3] = target: T3, human PRLR (Biacore antigen) (human, UniProt P16471 25-234, limits assumed); test: SPR Biacore
T3 construct: The construct injected over captured antibody is not described (a soluble form is likely); also called huPRLR
T3 sequence: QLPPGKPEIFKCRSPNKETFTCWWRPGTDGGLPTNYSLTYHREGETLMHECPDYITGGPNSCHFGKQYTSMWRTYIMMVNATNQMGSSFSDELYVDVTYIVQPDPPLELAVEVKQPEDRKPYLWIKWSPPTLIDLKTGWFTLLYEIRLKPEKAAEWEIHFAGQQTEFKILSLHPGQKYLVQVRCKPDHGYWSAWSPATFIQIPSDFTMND
Procedure, shortened: as §1

[4] = target: T4, mouse PRLR on Baf3-mPRLR cells (mouse, UniProt Q08501 20-608); test: cell-based or functional assay
T4 sequence (looked up): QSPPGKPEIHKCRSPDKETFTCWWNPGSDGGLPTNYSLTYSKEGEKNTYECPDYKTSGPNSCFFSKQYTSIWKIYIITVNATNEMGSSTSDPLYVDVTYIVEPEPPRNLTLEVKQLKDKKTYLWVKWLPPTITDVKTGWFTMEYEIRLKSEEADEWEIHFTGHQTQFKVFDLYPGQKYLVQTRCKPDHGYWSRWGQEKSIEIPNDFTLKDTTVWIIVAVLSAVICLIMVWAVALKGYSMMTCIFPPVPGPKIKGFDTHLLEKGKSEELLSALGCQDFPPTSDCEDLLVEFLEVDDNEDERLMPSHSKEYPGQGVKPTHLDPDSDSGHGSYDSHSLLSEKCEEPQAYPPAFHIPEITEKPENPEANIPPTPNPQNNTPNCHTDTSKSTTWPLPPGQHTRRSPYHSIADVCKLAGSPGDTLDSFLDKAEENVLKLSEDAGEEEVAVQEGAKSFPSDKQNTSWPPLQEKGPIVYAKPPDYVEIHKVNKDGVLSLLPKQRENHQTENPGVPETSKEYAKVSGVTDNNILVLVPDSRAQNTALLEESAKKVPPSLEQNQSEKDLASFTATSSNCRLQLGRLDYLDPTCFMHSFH

[5] = target: cyno PRLR on Baf3-cyPRLR cells (cyno); test: cell-based or functional assay
human PRLR on cells = target: T5, human PRLR on cells (human, UniProt P16471 25-622); test: cell-based or functional assay
T5 sequence: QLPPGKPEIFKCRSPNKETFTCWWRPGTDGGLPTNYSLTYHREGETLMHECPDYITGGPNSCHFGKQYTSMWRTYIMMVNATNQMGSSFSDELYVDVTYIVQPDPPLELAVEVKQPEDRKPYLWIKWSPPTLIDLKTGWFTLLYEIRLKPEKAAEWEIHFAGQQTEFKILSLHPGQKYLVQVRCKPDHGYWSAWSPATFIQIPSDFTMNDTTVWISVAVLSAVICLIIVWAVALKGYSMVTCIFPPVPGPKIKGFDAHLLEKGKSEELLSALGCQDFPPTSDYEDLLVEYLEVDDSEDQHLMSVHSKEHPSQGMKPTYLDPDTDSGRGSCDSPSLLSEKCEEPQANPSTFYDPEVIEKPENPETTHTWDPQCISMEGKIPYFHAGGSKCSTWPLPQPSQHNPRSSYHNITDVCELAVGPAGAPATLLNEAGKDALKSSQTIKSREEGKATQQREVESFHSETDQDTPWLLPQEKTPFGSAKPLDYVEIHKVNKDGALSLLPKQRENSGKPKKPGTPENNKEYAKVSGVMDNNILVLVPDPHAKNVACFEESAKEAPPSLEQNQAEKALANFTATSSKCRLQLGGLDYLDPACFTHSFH

[6] = target: T3, human PRLR (Biacore antigen); test: SPR Biacore; remark: listed apart in the source
[7] = target: T6, human PRLR ECD-Fc fusion protein (human, UniProt P16471 25-233); test: ELISA on ECD
T6 construct: not shown: Fc region (captured by goat anti-human Fc)
T6 sequence: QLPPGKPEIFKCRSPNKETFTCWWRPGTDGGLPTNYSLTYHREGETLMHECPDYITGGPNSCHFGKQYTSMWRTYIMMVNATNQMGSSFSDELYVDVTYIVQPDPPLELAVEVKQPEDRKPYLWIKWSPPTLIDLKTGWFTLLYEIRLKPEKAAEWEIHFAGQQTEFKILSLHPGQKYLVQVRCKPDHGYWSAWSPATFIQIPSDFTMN
Procedure, shortened: (§2)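 PRLR was captured on blocked plates for 1 h, then incubated 1 h with serial antibody dilutions in PBS pH 7.4/0.05% Tween 20 containing 10% Superblock. HRP secondary and TMB gave signal read at 450 nm, and EC50 came from curve fitting.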

[8] = target: T7, cyno PRLR ECD-his6 protein (cyno); test: ELISA on ECD
T7 chain: T1 sequence
Procedure, shortened: as §2

B1: Ab36 (antibody, human IgG1, kappa, V domains shown)
VH: EVQLVQSGAEVKKPGSSVKVSCKASGYTFTSYWIHWVRQAPGQGLEWMGEIDPSDSYTNYNQKFKGRVTITADKSTSTAYMELSSLRSEDTAVYYCARSFFTNWFAYWGQGTLVTVSS
VL: DVVMTQTPLSLSVTPGQPASISCRSSQSLVHSNGNTYLHWYLQKPGQSPQLLIYKVSNRFSGVPDRFSGSGSGTDFTLKISRVEAEDVGVYFCSQSTHVPFTFGGGTKVEIKR
notes: humanized from Ab7; G1; also called Ab4 HC.1 and Ab4 LC.1a
Kd [1]: 8.51 nM | koff [1]: 0.00114 s⁻¹ | kon [1]: 133000 M⁻¹ s⁻¹ | Kd [2]: 1140 nM | koff [2]: 0.0568 s⁻¹ | kon [2]: 49800 M⁻¹ s⁻¹ | Kd [3]: 8.13 nM | koff [3]: 0.00128 s⁻¹ | kon [3]: 157000 M⁻¹ s⁻¹ | Baf3-mPRLR proliferation IC50 [4]: > 30 µg/mL | Baf3-cyPRLR proliferation IC50 [5]: 0.41 µg/mL | Baf3-hPRLR proliferation IC50 (human PRLR on cells): 0.28 µg/mL | fold decrease in affinity against chAb7 [6]: ~45 fold | EC50 [7]: 0.556 nM | EC50 [8]: 0.538 nM
